Experimental data: patent US10920254B2, “Methods and materials for producing 5 and 7-carbon monomers” (INVISTA North America S.á.r.l., priority 2015, dated 2021)

B1: SEQ ID NO: 7: Chromobacterium violaceum ω-transaminase, N-terminal HIS tagged (protein, listed as Chromobacterium violaceum)
chain: MQKQRTTSQWRELDAAHHLHPFTDTASLNQAGARVMTRGEGVYLWDSEGNKIIDGMAGLWCVNVGYGRKDFAEAARRQMEELPFYNTFFKTTHPAVVELSSLLAEVTPAGFDRVFYTNSGSESVDTMIRMVRRYWDVQGKPEKKTLIGRWNGYHGSTIGGASLGGMKYMHEQGDLPIPGMAHIEQPWWYKHGKDMTPDEFGVVAARWLEEKILEIGADKVAAFVGEPIQGAGGVIVPPATYWPEIERICRKYDVLLVADEVICGFGRTGEWFGHQHFGFQPDLFTAAKGLSSGYLPIGAVFVGKRVAEGLIAGGDFNHGFTYSGHPVCAAVAHANVAALRDEGIVQRVKDDIGPYMQKRWRETFSRFEHVDDVRGVGMVQAFTLVKNKAKRELFPDFGEIGTLCRDIFFRNNLIMRACGDHIVSAPPLVMTRAEVDEMLAVAERCLEEFEQTLKARGLA
modifications: N-terminal His tag
notes: Chromobacterium violaceum ω-transaminase, N-terminal HIS tagged
B2: SEQ ID NO: 12: Vibrio fluvialis ω-transaminase, N-terminal HIS tagged (protein, listed as Vibrio fluvialis)
chain: MNKPQSWEARAETYSLYGFTDMPSLHQRGTVVVTHGEGPYIVDVNGRRYLDANSGLWNMVAGFDHKGLIDAAKAQYERFPGYHAFFGRMSDQTVMLSEKLVEVSPFDSGRVFYTNSGSEANDTMVKMLWFLHAAEGKPQKRKILTRWNAYHGVTAVSASMTGKPYNSVFGLPLPGFVHLTCPHYWRYGEEGETEEQFVARLARELEETIQREGADTIAGFFAEPVMGAGGVIPPAKGYFQAILPILRKYDIPVISDEVICGFGRTGNTWGCVTYDFTPDAIISSKNLTAGFFPMGAVILGPELSKRLETAIEAIEEFPHGFTASGHPVGCAIALKAIDVVMNEGLAENVRRLAPRFEERLKHIAERPNIGEYRGIGFMWALEAVKDKASKTPFDGNLSVSERIANTCTDLGLICRPLGQSVVLCPPFILTEAQMDEMFDKLEKALDKVFAEVA
modifications: N-terminal His tag
notes: Vibrio fluvialis ω-transaminase, N-terminal HIS tagged

Legend:
Assay type in all cases: biochemical
[1] = ω-transaminase enzyme activity assay (7-aminoheptanol to 7-oxoheptanol), L-alanine formation by RP-HPLC; conditions: for acceptance of 7-aminoheptanol as substrate (conversion of pyruvate to L-alanine), confirmed against the empty vector control: cell free extract, 10 mM 7-aminoheptanol, 10 mM pyruvate, pH 7.5, 25° C., 4 h, FIG. 17; for acceptance of 7-oxoheptanol as substrate forming 7-aminoheptanol: concluded from the reversibility of the ω-transaminase activity (Example 1)
Procedure: A nucleotide sequence encoding an N-terminal His-tag was added to the Chromobacterium violaceum, Pseudomonas syringae, and Rhodobacter sphaeroides nucleic acids encoding the ω-transaminases of SEQ ID NOs: 7, 9 and 10, respectively (see FIGS. 6E-6F), such that N-terminal HIS tagged ω-transaminases could be produced. The modified genes were cloned into a pET21a expression vector under the T7 promoter. Each expression vector was transformed into a BL21[DE3] E. coli host. Each resulting recombinant E. coli strain was cultivated at 37° C. in a 250 mL shake flask culture containing 50 mL LB media and antibiotic selection pressure, with shaking at 230 rpm. Each culture was induced overnight at 16° C. using 1 mM IPTG.
(§1) The pellet from each induced shake flask culture was harvested via centrifugation. Each pellet was resuspended and lysed via sonication. The cell debris was separated from the supernatant via centrifugation and the cell free extract was used immediately in enzyme activity assays.
(§2) Enzyme activity assays in the reverse direction (i.e., 7-aminoheptanol to 7-oxoheptanol) were performed in a buffer composed of a final concentration of 50 mM HEPES buffer (pH=7.5), 10 mM 7-aminoheptanol, 10 mM pyruvate, and 100 μM pyridoxyl 5′ phosphate. Each enzyme activity assay reaction was initiated by adding cell free extract of the ω-transaminase gene product or the empty vector control to the assay buffer containing the 7-aminoheptanol and then incubated at 25° C. for 4 h, with shaking at 250 rpm. The formation of L-alanine was quantified via RP-HPLC.

[2] = ω-transaminase enzyme activity assay, reverse direction (7-aminoheptanoate to pimelate semialdehyde), L-alanine formation by RP-HPLC; conditions: cell free extract; 10 mM 7-aminoheptanoate, 10 mM pyruvate, pH 7.5, 25° C., 4 h; FIG. 13
Procedure: (§3) A nucleotide sequence encoding an N-terminal His-tag was added to the nucleic acid sequences from Chromobacterium violaceum, Pseudomonas syringae, Rhodobacter sphaeroides, and Vibrio fluvialis encoding the ω-transaminases of SEQ ID NOs: 7, 9, 10, and 12, respectively (see FIGS. 6E-6F) such that N-terminal HIS tagged ω-transaminases could be produced. Each of the resulting modified genes was cloned into a pET21a expression vector under control of the T7 promoter and each expression vector was transformed into a BL21[DE3] E. coli host. The resulting recombinant E. coli strains were cultivated at 37° C. in a 250 mL shake flask culture containing 50 mL LB media and antibiotic selection pressure, with shaking at 230 rpm. Each culture was induced overnight at 16° C. using 1 mM IPTG.
as §1
as §2, with “7-aminoheptanoate” for “7-aminoheptanol”, “pimelate semialdehyde)” for “7-oxoheptanol)”, “7-aminoheptanoate,” for “7-aminoheptanol,”, “and” for “and then”, “L-alanine from pyruvate” for “L-alanine”

[3] = ω-transaminase enzyme activity assay, forward direction (pimelate semialdehyde to 7-aminoheptanoate), pyruvate formation by RP-HPLC; conditions: for acceptance of pimelate semialdehyde as substrate (conversion of L-alanine to pyruvate), confirmed against the empty vector control: cell free extract, 10 mM pimelate semialdehyde, 10 mM L-alanine, pH 7.5, 25° C., 4 h, FIG. 14; for reversibility of the ω-transaminase activity: pimelate semialdehyde accepted, 7-aminoheptanoate synthesized: conclusion from forward and reverse direction assays of Example 1
Procedure: as §3, §1
Enzyme activity in the forward direction (i.e., pimelate semialdehyde to 7-aminoheptanoate) was confirmed for the transaminases of SEQ ID NO: 9, SEQ ID NO: 10, and SEQ ID NO: 12. Enzyme activity assays were performed in a buffer composed of a final concentration of 50 mM HEPES buffer (pH=7.5), 10 mM pimelate semialdehyde, 10 mM L-alanine, and 100 μM pyridoxyl 5′ phosphate. Each enzyme activity assay reaction was initiated by adding a cell free extract of the ω-transaminase gene product or the empty vector control to the assay buffer containing the pimelate semialdehyde and incubated at 25° C. for 4 h, with shaking at 250 rpm. The formation of pyruvate was quantified via RP-HPLC.

Molecule | acceptance of 7-aminoheptanol as substrate (conversion of pyruvate to L-alanine), confirmed against the empty vector control [1] | acceptance of 7-oxoheptanol as substrate forming 7-aminoheptanol [1] | acceptance of 7-aminoheptanoate as substrate (conversion of pyruvate to L-alanine), confirmed against the empty vector control [2] | acceptance of pimelate semialdehyde as substrate (conversion of L-alanine to pyruvate), confirmed against the empty vector control [3] | reversibility of the ω-transaminase activity: pimelate semialdehyde accepted, 7-aminoheptanoate synthesized [3]
SEQ ID NO: 10: Rhodobacter sphaeroides ω-transaminase, N-terminal HIS tagged | accepted 7-aminoheptanol as substrate | accept 7-oxoheptanol as substrate and form 7-aminoheptanol | accepted 7-aminoheptanote as substrate | accepted pimelate semialdehyde as substrate | accepted pimelate semialdehyde as substrate and synthesized 7-aminoheptanoate as a reaction product
B1 | accepted 7-aminoheptanol as substrate | accept 7-oxoheptanol as substrate and form 7-aminoheptanol | accepted 7-aminoheptanote as substrate |  | accepted pimelate semialdehyde as substrate and synthesized 7-aminoheptanoate as a reaction product
B2 |  |  | accepted 7-aminoheptanote as substrate | accepted pimelate semialdehyde as substrate | accepted pimelate semialdehyde as substrate and synthesized 7-aminoheptanoate as a reaction product
